{
  "source": "IntAct's records for PubMed 25764370",
  "parents": {"B1": {"name": "Structural maintenance of chromosomes protein 5 (Saccharomyces cerevisiae), Q08204 (parent)", "chain": "MTSLIDLGRYVERTHHGEDTEPRSKRVKIAKPDLSSFQPGSIIKIRLQDFVTYTLTEFNLSPSLNMIIGPNGSGKSTFVCAVCLGLAGKPEYIGRSKKVEDFIKNGQDVSKIEITLKNSPNVTDIEYIDARDETIKITRIITRSKRRSDYLINDYQVSESVVKTLVAQLNIQLDNLCQFLSQERVEEFARLKSVKLLVETIRSIDASLLDVLDELRELQGNEQSLQKDLDFKKAKIVHLRQESDKLRKSVESLRDFQNKKGEIELHSQLLPYVKVKDHKEKLNIYKEEYERAKANLRAILKDKKPFANTKKTLENQVEELTEKCSLKTDEFLKAKEKINEIFEKLNTIRDEVIKKKNQNEYYRGRTKKLQATIISTKEDFLRSQEILAQTHLPEKSVFEDIDIKRKEIINKEGEIRDLISEIDAKANAINHEMRSIQRQAESKTKSLTTTDKIGILNQDQDLKEVRDAVLMVREHPEMKDKILEPPIMTVSAINAQFAAYLAQCVDYNTSKALTVVDSDSYKLFANPILDKFKVNLRELSSADTTPPVPAETVRDLGFEGYLSDFITGDKRVMKMLCQTSKIHTIPVSRRELTPAQIKKLITPRPNGKILFKRIIHGNRLVDIKQSAYGSKQVFPTDVSIKQTNFYQGSIMSNEQKIRIENEIINLKNEYNDRKSTLDALSNQKSGYRHELSELASKNDDINREAHQLNEIRKKYTMRKSTIETLREKLDQLKREARKDVSQKIKDIDDQIQQLLLKQRHLLSKMASSMKSLKNCQKELISTQILQFEAQNMDVSMNDVIGFFNEREADLKSQYEDKKKFVKEMRDTPEFQSWMREIRSYDQDTKEKLNKVAEKYEEEGNFNLSFVQDVLDKLESEIAMVNHDESAVTILDQVTAELRELEHTVPQQSKDLETIKAKLKEDHAVLEPKLDDIVSKISARFARLFNNVGSAGAVRLEKPKDYAEWKIEIMVKFRDNAPLKKLDSHTQSGGERAVSTVLYMIALQEFTSAPFRVVDEINQGMDSRNERIVHKAMVENACAENTSQYFLITPKLLTGLHYHEKMRIHCVMAGSWIPNPSEDPKMIHFGETSNYSFD", "partner": "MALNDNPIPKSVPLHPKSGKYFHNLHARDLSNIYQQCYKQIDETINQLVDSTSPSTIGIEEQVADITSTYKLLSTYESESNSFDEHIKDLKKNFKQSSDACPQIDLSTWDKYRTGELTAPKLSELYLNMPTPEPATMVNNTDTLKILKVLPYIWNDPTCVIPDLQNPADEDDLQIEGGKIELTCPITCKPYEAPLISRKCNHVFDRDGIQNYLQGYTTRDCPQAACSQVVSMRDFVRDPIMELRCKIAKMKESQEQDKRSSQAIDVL"}, "B2": {"name": "Structural maintenance of chromosomes protein 5 (Saccharomyces cerevisiae), Q08204 (parent)", "chain": "B1 chain"}},
  "data": [
    {"variants_of": "B1", "details": "with nse2_yeast MMS21, P38632", "values": [
      {"variant": "Q752A;L755A;L762A", "effect of a mutation on the interaction": "decreasing interaction strength"},
      {"variant": "I780R;I784R;F787A;N791A", "effect of a mutation on the interaction": "disrupting interaction strength"}
    ]},
    {"variants_of": "B2", "details": "with smt3_yeast SMT3, Q12306", "values": [
      {"variant": "Q752A;L755A;L762A", "effect of a mutation on the interaction": "decreasing interaction strength"},
      {"variant": "M769A;K773A", "effect of a mutation on the interaction": "decreasing interaction strength"},
      {"variant": "I780R;I784R;F787A;N791A", "effect of a mutation on the interaction": "disrupting interaction strength"}
    ]}
  ]
}
